This is an account of results in patent publication US20250026850A1 (TRISHULA THERAPEUTICS, published 2025).

The target in assay [1] is T1, rhCD39-ECD-His (R&D Systems) (human, UniProt P49961 38-478).
T1 construct: Bought protein; that entry runs on through the C-terminal transmembrane and cytoplasmic residues; also called recombinant human CD39 extracellular domain; soluble recombinant human CD39 (ENTDP1) ECD; not shown: His tag
T1 sequence: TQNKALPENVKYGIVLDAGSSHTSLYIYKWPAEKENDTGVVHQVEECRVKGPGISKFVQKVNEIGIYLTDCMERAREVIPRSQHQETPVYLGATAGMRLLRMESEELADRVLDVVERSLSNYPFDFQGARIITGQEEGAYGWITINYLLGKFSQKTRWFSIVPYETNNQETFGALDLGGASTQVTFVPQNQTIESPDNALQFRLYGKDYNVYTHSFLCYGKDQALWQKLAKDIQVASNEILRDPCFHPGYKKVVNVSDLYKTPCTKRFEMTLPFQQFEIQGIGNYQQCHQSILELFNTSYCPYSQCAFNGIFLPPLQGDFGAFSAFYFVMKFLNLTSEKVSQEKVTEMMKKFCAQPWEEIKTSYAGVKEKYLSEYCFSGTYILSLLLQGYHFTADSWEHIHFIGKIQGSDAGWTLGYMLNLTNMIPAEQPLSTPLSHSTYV
In words: BLI (Octet), IgG on anti-human Fc sensor, rhCD39-ECD-His 10-300 nM, 1:1 fit. On the procedure:
The kinetic data was globally fit with a simple 1:1 Langmuir binding model to yield on-rate (kon) and off-rate (koff) values. The equilibrium dissociation constants (KD) were calculated from the kon and koff values.
Binding kinetics were measured using the Octet Red96 system (ForteBio) at 25° C. in running buffer (1× Pall ForteBio Kinetics Buffer diluted into PBS or Tris pH 7.4). […] After a short baseline step in running buffer, the sensors were exposed to varying concentrations (10-300 nM) of rhCD39-ECD-His (R&D Systems) for the association step. Dissociation of the complex was monitored upon exposure of the sensors to running buffer once again. Data was processed using ForteBio Octet software with baseline subtraction, global fit and 1:1 binding model to obtain association and dissociation rates. KD was calculated from the ratio of kd to kₐ.
In general terms: Biolayer interferometry detects binding as a change in optical thickness at a sensor tip.

Assay [2] concerns the target T2, human CD39 on cells (human, UniProt P49961 1-510).
T2 construct: One molecule for all cells that carry human CD39; the cell is named under assay; also called hCD39; cellular CD39
T2 sequence: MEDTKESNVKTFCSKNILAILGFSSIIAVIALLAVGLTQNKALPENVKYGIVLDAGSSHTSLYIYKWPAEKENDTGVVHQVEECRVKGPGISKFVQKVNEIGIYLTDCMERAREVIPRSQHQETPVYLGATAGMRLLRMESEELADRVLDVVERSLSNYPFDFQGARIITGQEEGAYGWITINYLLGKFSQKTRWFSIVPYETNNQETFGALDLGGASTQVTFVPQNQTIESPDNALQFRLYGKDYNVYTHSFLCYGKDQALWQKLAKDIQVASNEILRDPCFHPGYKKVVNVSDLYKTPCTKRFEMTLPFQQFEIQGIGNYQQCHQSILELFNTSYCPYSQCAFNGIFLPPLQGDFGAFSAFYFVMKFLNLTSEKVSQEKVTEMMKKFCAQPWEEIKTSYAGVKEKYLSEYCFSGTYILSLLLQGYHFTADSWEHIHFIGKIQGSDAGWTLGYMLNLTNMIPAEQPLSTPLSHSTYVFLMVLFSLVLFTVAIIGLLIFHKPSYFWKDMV
In words: flow cytometry, 100 nM IgG, hCD39-CHO cells; MFI ratio to parental CHO. On the procedure:
(§1) 100 nanomolar IgGs (each antibody is indicated as a unique clone number in the FIG.) were incubated at […] 30 minutes on ice in phosphate buffered saline (PBS) with parental CHO cells or CHO cells engineered to express either human or cynomolgus macaque (Macaca fascicularis) CD39 (CHO CD39 cells). Cells were then washed with ice cold PBS and incubated with a fluorescently labeled goat-anti-human IgG for 20 minutes on ice. Cells were washed and resuspended in ice cold PBS prior to analysis by flow cytrometry.
On the technique in general: Flow cytometry measures light scatter and fluorescence of single cells or particles in a stream.

Assay [3] addresses T3, cynomolgus macaque (Macaca fascicularis) CD39 on cells (cynomolgus macaque (Macaca fascicularis), UniProt P49961 7-510 (human entry)).
T3 construct: CHO cells engineered to express cyno CD39, or primary cyno B cells and monocytes; also called cyno CD39; cCD39
T3 chain: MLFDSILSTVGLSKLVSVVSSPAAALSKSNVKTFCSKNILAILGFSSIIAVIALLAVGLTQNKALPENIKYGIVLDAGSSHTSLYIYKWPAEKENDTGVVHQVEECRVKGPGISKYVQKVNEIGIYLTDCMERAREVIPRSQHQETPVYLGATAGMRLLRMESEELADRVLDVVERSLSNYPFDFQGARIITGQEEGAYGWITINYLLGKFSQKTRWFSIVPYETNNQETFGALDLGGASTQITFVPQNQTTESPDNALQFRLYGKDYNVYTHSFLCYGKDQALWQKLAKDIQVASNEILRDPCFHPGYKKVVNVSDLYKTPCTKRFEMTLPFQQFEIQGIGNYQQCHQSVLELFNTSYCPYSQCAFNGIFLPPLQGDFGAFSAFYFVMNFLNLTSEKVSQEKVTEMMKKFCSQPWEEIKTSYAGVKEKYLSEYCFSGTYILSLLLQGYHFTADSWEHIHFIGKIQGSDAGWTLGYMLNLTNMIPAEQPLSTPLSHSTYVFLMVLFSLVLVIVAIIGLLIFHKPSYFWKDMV
In words: flow cytometry, 100 nM IgG, cCD39-CHO cells; MFI ratio to parental CHO. The procedure:
as §1

B1: 27596 (antibody, V domains shown)
VH: QVQLVQSGAEVKKPGSSVKVSCKASGGTFSSYAISWVRQAPGQGLEWMGGIIPIFGTANYAQKFQGRVTITADESTSTAYMELSSLRSEDTAVYYCARDPLGIRKHWFDPWGQGTLVTVSS
VL: EIVMTQSPATLSLSPGERATLSCRASQSVSSYLAWYQQKPGQAPRLLIYDASNRATGIPARFSGSGSGTDFTLTISSLEPEDFAVYYCQQHTVWPITFGGGTKVEIKR
Turning to B1, in assay [1], the Kd (commonly the equilibrium constant for the complex coming apart) stood at 31.1 nM; the koff (commonly the rate constant with which the complex falls apart) came to 0.0533 s⁻¹; the kon (as a rule, a measure of how fast the partners come together) was 1.72e+06 M⁻¹ s⁻¹. Besides, the “Cell Binding (FOB)” value in assay [2] is 252 FOB. In addition, the “Cell Binding (FOB)” value in assay [3] was 257 FOB.

B2: 27597 (antibody, V domains shown)
VH: QVQLVQSGAEVKKPGSSVKVSCKASGGTFSSYAISWVRQAPGQGLEWMGSIIPIFGTANYAQKFQGRVTITADESTSTAYMELSSLRSEDTAVYYCAREGRGYDSSRYYKFWFDPWGQGTLVTVSS
VL: EIVLTQSPATLSLSPGERATLSCRASQSVSSYLAWYQQKPGQAPRLLIYDASNRATGIPARFSGSGSGTDFTLTISSLEPEDFAVYYCQQFVLWPRTFGGGTKVEIKR
Regarding B2, in assay [1], the Kd came out at 335 nM, the koff amounted to 0.0914 s⁻¹ and the kon worked out at 273000 M⁻¹ s⁻¹. In assay [2], the “Cell Binding (FOB)” value worked out at 799 FOB. In assay [3], the “Cell Binding (FOB)” value amounted to 908 FOB.

B3: 27589 (antibody, V domains shown)
VH: QVQLVQSGAEVKKPGSSVKVSCKASGGTFSSYAISWVRQAPGQGLEWMGGIIPIFGTANYAQKFQGRVTITADESTSTAYMELSSLRSEDTAVYYCARDSGYHRHYSDYWGQGTLVTVSS
VL: DIQMTQSPSTLSASVGDRVTITCRASQSISSWLAWYQQKPGKAPKLLIYKASSLESGVPSRFSGSGSGTEFTLTISSLQPDDFATYYCQQYGLFPITFGGGTKVEIKR
In assay [1], B3 registered a dissociation constant (Kd) of 191 nM, a koff of 0.0385 s⁻¹ and a kon of 202000 M⁻¹ s⁻¹. Besides, the “Cell Binding (FOB)” value in assay [2] came out at 311 FOB. The “Cell Binding (FOB)” value in assay [3] was found to be 531 FOB.

B4: 29852 (antibody, V domains shown)
VH: QVQLVQSGAEVKKPGSSVKVSCKASGGTFSAMAISWVRQAPGQGLEWMGGILPIAGTANYAQKFQGRVTITADESTSTAYMELSSLRSEDTAVYYCARGGAKYASTYGMDVWGQGTTVTVSS
VL: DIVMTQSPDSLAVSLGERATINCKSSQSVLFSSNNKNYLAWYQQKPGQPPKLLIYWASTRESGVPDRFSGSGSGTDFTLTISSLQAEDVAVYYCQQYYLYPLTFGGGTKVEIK
For the molecule B4, in assay [1], binding was characterised by a dissociation constant (Kd) of 0.266 nM, the koff is 0.000134 s⁻¹ and the kon turned out to be 503000 M⁻¹ s⁻¹. Moreover, the “Cell Binding (FOB)” value in assay [2] is 337 FOB. Also, the “Cell Binding (FOB)” value in assay [3] turned out to be 1420 FOB.

B5: 31432 (antibody, V domains shown)
VH: QVQLVQSGAEVKKPGSSVKVSCKASGGTFSHTAISWVRQAPGQGLEWMGGILPIGGTANYAQKFQGRVTITADESTSTAYMELSSLRSEDTAVYYCARGGAKYASQLGMDVWGQGTTVTVSS
VL: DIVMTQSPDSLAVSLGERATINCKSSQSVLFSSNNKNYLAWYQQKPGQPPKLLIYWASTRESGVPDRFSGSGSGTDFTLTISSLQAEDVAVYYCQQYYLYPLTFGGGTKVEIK
In the case of B5, in assay [1], the Kd turned out to be 1.07 nM, the koff worked out at 0.000286 s⁻¹ and the kon worked out at 268000 M⁻¹ s⁻¹. In addition, in assay [2], the “Cell Binding (FOB)” value worked out at 1170 FOB. The “Cell Binding (FOB)” value in assay [3] was determined as 5700 FOB.

B6: 28347 (antibody, V domains shown)
VH: QVQLVQSGAEVKKPGSSVKVSCKASGGTFSSLAISWVRQAPGQGLEWMGGIIPIFGTANYAQKFQGRVTITADESTNTAYMELSSLRSEDTAVYYCARGGAKYASTYGMDVWGQGTTVTVSS
VL: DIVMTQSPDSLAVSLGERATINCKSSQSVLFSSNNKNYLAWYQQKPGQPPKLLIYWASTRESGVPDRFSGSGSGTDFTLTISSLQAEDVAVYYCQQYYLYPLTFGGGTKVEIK
In assay [1], B6 returned a Kd of 9.05 nM, a koff of 0.00815 s⁻¹ and a kon of 901000 M⁻¹ s⁻¹. In addition, in assay [2], the “Cell Binding (FOB)” value came to 1020 FOB. Moreover, the “Cell Binding (FOB)” value in assay [3] is 1340 FOB.

B7: 31436 (antibody, V domains shown)
VH: QVQLVQSGAEVKKPGSSVKVSCKASGGTFSLLAISWVRQAPGQGLEWMGGILPIAGTANYAQKFQGRVTITADESTSTAYMELSSLRSEDTAVYYCARGGAKYAVGYGMDVWGQGTTVTVSS
VL: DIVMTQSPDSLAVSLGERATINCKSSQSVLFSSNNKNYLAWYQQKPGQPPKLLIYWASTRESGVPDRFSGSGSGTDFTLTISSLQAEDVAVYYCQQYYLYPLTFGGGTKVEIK
For B7, in assay [1], the affinity, expressed as Kd, was 0.924 nM; the koff was determined as 0.000243 s⁻¹; the on-rate (kon) was determined as 263000 M⁻¹ s⁻¹. Also, the “Cell Binding (FOB)” value in assay [2] was 1320 FOB. Also, the “Cell Binding (FOB)” value in assay [3] is 3570 FOB.

B8: 29851 (antibody, V domains shown)
VH: QVQLVQSGAEVKKPGSSVKVSCKASGGTFASLAISWVRQAPGQGLEWMGGILPIFGEANYAQKFQGRVTITADESTSTAYMELSSLRSEDTAVYYCARGGAKYASTYGMDVWGQGTTVTVSS
VL: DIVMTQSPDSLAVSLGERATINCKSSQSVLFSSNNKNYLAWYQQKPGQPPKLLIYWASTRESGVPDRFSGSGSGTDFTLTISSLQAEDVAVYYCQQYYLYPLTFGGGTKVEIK
In assay [1], B8 showed a Kd of 1.23 nM, a koff of 0.000385 s⁻¹ and a kon of 313000 M⁻¹ s⁻¹. The “Cell Binding (FOB)” value in assay [2] amounted to 129 FOB. In assay [3], the “Cell Binding (FOB)” value was determined as 398 FOB.

B9: 29857 (antibody, V domains shown)
VH: QVQLVQSGAEVKKPGSSVKVSCKASGGTFSWLAISWVRQAPGQGLEWMGGIIPRGGTANYAQKFQGRVTITADESTSTAYMELSSLRSEDTAVYYCARGGAKYASTYGMDVWGQGTTVTVSS
VL: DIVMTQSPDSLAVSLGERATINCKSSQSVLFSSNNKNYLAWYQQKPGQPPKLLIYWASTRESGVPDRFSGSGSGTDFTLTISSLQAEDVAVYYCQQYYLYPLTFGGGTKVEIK
In assay [1], B9 had a Kd of 0.76 nM, a koff of 0.000229 s⁻¹ and a kon of 302000 M⁻¹ s⁻¹. For the same molecule, the “Cell Binding (FOB)” value in assay [2] is 224 FOB. Besides, in assay [3], the “Cell Binding (FOB)” value is 1140 FOB.

B10: 27588 (antibody, V domains shown)
VH: QVQLVQSGAEVKKPGSSVKVSCKASGGTFSNYAISWVRQAPGQGLEWMGGIIPIFGTANYAQKFQGRVTITADESTSTAYMELSSLRSEDTAVYYCARAKRGYDSYGGVYFDYWGQGTLVTVSS
VL: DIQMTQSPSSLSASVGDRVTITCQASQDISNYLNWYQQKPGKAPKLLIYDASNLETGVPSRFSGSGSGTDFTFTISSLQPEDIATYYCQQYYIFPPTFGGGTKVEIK
B10: in assay [1], the Kd amounted to 54.9 nM, the koff worked out at 0.00644 s⁻¹ and the kon amounted to 117000 M⁻¹ s⁻¹. Also, the “Cell Binding (FOB)” value in assay [2] amounted to 10 FOB. In addition, in assay [3], the “Cell Binding (FOB)” value stood at 14 FOB.

B11: 27590 (antibody, V domains shown)
VH: QVQLVQSGAEVKKPGSSVKVSCKASGGTFSNYAISWVRQAPGQGLEWMGGIIPIFGTANYAQKFQGRVTITADESTSTAYMELSSLRSEDTAVYYCARGPTVTATTSIGTHNWFDPWGQGTLVTVSS
VL: EIVLTQSPATLSLSPGERATLSCRASQSVSSYLAWYQQKPGQAPRLLIYDASNRATGIPARFSGSGSGTDFTLTISSLEPEDFAVYYCQQRNFYPPTFGGGTKVEIK
In assay [1], B11 registered a Kd of 131 nM, a koff of 0.023 s⁻¹ and a kon of 176000 M⁻¹ s⁻¹. Besides, in assay [2], the “Cell Binding (FOB)” value came to 33 FOB. In addition, in assay [3], the “Cell Binding (FOB)” value came out at 44 FOB.
